What follows are substances tested against ω-fragment of β-galactosidase [β-galactosidase: P00722] (assay: cell-based or functional assay).

Sequence of MJ1267 (LivF)/α-fragment fusion protein (Q58663 1-257, tags or fused parts left off): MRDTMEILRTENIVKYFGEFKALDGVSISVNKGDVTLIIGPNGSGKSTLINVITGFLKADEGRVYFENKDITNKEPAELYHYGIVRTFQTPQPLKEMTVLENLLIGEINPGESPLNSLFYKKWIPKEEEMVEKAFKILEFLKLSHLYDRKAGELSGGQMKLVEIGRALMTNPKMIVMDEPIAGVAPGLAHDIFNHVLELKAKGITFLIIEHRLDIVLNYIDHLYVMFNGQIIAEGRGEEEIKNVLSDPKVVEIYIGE

Substance	β-gal Activity (units/cell), ONPG hydrolysis in cell lysates [units/cell]	β-gal activity, against the wild-type Aβ/α fusion [fold]
TRx/α-fragment fusion protein (from UniProt P0AA25 1-109; P00722 7-58)	159	–
CFTR NBD1-D/α-fragment fusion protein (from UniProt P13569 419-655; P00722 7-58)	6	–
MBP G32D/α-fragment fusion protein (from UniProt P0AEX9 27-392; P00722 7-58)	94	–
MBP wild-type/α-fragment fusion protein (from UniProt P0AEX9 27-392; P00722 7-58)	102	–
MBP G32D/I33P/α-fragment fusion protein (from UniProt P0AEX9 27-392; P00722 7-58)	14	–
GST/α-fragment fusion protein (from UniProt P08515 1-218; P00722 7-58)	134	–
CFTR NBD1-B/α-fragment fusion protein (from UniProt P13569 404-644; P00722 7-58)	5	–
MBP I33P/α-fragment fusion protein (from UniProt P0AEX9 27-392; P00722 7-58)	46	–
MJ1267 (LivF)/α-fragment fusion protein (from UniProt Q58663 1-257; P00722 7-58)	12	–
Aβ (1-42) F19P/α-fragment fusion protein (from UniProt P05067 672-713; P00722 7-58)	–	3

— patent publication US7455978
